Reference: PMC5686756, “IKKγ-Mimetic Peptides Block the Resistance to Apoptosis Associated with Kaposi's Sarcoma-Associated Herpesvirus Infection” (Journal of Virology, 2017)

Target: ks-vFLIP (purified, thermofluor assay) (Kaposi's sarcoma-associated herpesvirus (KSHV)) (UniProt Q76RF1)
Assay: thermofluor (thermal shift); 30 μM ks-vFLIP combined with IKKγ or mimetic peptides, SYPRO orange 1:1,000, 96-well plate, thermal denaturation

IKKγ fragment encompassing residues 150 to 272, sequence (Q9Y6K9 150-272): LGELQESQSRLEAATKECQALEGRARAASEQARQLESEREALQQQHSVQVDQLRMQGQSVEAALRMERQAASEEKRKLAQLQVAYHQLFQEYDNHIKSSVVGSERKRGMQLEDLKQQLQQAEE
unmodified IKKγ 30-mer peptide (residues 224 to 253), sequence (Q9Y6K9 224-253): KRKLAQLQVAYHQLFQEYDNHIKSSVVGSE

IKKγ fragment encompassing residues 150 to 272 (from UniProt Q9Y6K9 150-272) (domain or fragment)
shift in melting temperature at 30 μM: 8 °C

unmodified IKKγ 21-mer peptide (residues 226 to 248) (from UniProt Q9Y6K9 226-248)
shift in melting temperature at 100 μM: 4 °C

unmodified IKKγ 30-mer peptide (residues 224 to 253) (from UniProt Q9Y6K9 224-253)
shift in melting temperature at 100 μM: 4 °C
